The text below walks through data of patent publication EP3581587A1 (Shanghai Benemae Pharmaceutical Corporation, dated 2019).

Sequences and labels used below:
B1: h-19F6 (antibody, human IgG4, V domains shown)
VH: EVQLVESGGGLVQPGRSLRLSCTASGFTFSKYAMSWVRQAPGKGLEWVSAINYDGSTTYYADSVKGRFTLSRDNSKNTLYLQMNSLRAEDTAVYYCARHPFNNFGIWFAYWGQGTLVTVS
VL: QFQLTQPSSVSASVGDRVTITCERSSGDIGDSYVSWYQQKPGQPPKNVIYADDQRPSGVPDRFSGSIDGSGNSASLTISSLQAEDAADYFCQSYDSNIDFNPVFGGGTKLEVK
B2: h-34F8 (antibody, human IgG4, V domains shown)
VH: QVQLQESGPGLVKPSETLSLTCTVSGFSLTTYHVHWVRQPPGKGLEWIGIMWRDGDTYYNSSLKSRVTISRDTSKNQVSLKLSSVTAADTAVYFCARGGTLTTPFTYWGQGTLVTVSS
VL: DVVLTQTPLSLPVTPGEPASISCRSSQSLESRDGNTYLEWYLQKPGQSPQVLLYGVSNRLSGVPDRFSGSGSGTDFTLKISRVEAEDVGVYYCFQATHGPFTFGQGTKLEIKR
B3: h-42A5 (antibody, human IgG4, V domains shown)
VH: QVTLKESGPVLVKPTETLTLTCTVSGFSLTSYHLHWIRQPPGKALEWMGLMWRDGDTSYNSRLKSRLTISRDTSKSQVVLTMTNMDPVDTATYYCARGMTLATPFLYWGQGTLVTVSS
VL: DVVLTQTPLSLSVTPGQPASISCRSSQSLESSDGNTYLEWYLQKPGQSPQLLIYGVSNRFSGVPDRFSGSGSGTDFTLKISRVEAEDLGVYYCFQATRDPFTFGQGTKLEIKR

For this test, the target named is human activated coagulation factor XI (FXIa) (human, UniProt P03951 19-625). The test is described as follows: cell-based or functional assay.
For B1, the “apparent Ki, inhibition of FXIa cleavage of chromogenic substrate S-2366” value (“apparent Ki, inhibition” for short) was found to be 0.67 nM.

Take B2: the “apparent Ki, inhibition” value is 2.08 nM.

Regarding B3, the “apparent Ki, inhibition” value came out at 1.43 nM.
